For orientation: Kd means the constant that tells how readily two partners part at equilibrium. High values mean a looser complex, low ones a tighter complex.

Like-named read-outs stand apart in the source and are kept apart here.

The results in this text go back to article doi:10.1101/2021.06.22.449466 (bioRxiv, 2021).

Experiment [1] deals with T1, Human RPA (heterotrimeric RPA complex: RPA70, RPA32 and RPA14 subunits) (human, UniProt P27694;P15927;P35244). The experiment is described as follows: BLI.
Experiment [2] deals with T1, Human RPA (heterotrimeric RPA complex: …). Briefly: BLI. This is another data set of the same source.

T1 sequence (P27694 whole entry, chain 1 of 3): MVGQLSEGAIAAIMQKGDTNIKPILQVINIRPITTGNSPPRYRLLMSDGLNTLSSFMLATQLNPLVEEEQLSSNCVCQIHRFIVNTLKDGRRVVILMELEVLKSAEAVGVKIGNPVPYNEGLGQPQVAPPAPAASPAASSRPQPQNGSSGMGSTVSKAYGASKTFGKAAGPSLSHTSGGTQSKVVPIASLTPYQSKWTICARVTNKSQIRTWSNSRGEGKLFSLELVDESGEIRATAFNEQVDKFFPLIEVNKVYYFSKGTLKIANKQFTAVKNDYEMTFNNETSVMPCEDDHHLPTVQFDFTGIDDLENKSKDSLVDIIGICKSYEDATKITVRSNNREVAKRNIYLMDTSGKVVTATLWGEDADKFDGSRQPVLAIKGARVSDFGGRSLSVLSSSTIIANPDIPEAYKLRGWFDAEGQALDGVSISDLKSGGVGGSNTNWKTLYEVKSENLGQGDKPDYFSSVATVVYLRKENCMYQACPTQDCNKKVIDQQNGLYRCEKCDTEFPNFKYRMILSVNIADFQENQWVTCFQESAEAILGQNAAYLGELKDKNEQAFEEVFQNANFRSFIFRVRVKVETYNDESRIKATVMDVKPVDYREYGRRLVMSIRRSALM
T1 sequence (P15927 whole entry, chain 2 of 3): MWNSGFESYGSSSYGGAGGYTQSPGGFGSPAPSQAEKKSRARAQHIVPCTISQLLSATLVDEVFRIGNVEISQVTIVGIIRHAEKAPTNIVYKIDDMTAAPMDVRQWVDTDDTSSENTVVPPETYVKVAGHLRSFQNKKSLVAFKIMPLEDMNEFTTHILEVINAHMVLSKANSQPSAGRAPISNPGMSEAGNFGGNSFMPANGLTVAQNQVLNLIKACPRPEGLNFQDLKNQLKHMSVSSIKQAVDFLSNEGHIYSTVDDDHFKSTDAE
T1 sequence (P35244 whole entry, chain 3 of 3): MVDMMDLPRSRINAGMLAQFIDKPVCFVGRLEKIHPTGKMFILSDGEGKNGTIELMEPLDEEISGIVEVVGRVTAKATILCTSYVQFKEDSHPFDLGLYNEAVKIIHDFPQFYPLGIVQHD

B1: Lamin-C (amino acid residues 1-152) (domain or fragment)
chain: METPSQRRATRSGAQASSTPLSPTRITRLQEKEDLQELNDRLAVYIDRVRSLETENAGLRLRITESEEVVSREVSGIKAAYEAELGDARKTLDSVAKERARLQLELSKVREEFKELKARNTKKEGDLIAAQARLKDLEALLNSKEAALSTAL
With B1, the equilibrium dissociation constant (Kd) in experiment [1] was determined as 1500 nM; in experiment [2] it was 35 µM.
